Where no end group is shown, it is not given here.

For the assay, the target named is tumor necrosis factor alpha (TNF-α) protein. Briefly: ELISA: plate coated with 2 µg/ml TNF-α, FITC-labeled peptide titrated, HRP anti-FITC antibody, OD 410 nm, fitted in GraphPad Prism 5. For orientation: An ELISA detects its analyte on a solid surface through an enzyme-linked reagent.
tumor necrosis factor alpha (TNF-α) protein, sequence (chain, as listed by the source): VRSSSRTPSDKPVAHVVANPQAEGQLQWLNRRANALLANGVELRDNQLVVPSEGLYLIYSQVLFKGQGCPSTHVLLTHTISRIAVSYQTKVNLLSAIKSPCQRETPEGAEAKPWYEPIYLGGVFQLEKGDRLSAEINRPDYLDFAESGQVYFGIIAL

B1: peptide 632 (peptide)
peptide: HYIDFRW
modifications: also: FITC label, place not given here
notes: Chemically synthesized peptide; It was used in the ELISA as the FITC-labeled peptide; also called TNF-α antagonist peptide; antagonist peptide
A word on the Kd: it is the equilibrium constant for the complex coming apart. The low end stands for a tighter complex, the high end for a looser complex. With B1, binding was put at a Kd of 138 nM.

For the origin of these results see US20230192768A1 (published 2023).
